# Laboratory results as given in the RNAGym collection of RNA variant scans (doi:10.1093/nar/gkz1192).
# B1: CPEB3 Ribozyme (parent)
# chain: UAACAGGGGGCCACAGCAGAAGCGUUCACGUCGCAGCCCCUGUCAGAUUCUGGUGAAUCUGCGAAUUCUGCUGUAUAUCUC
# Variants of: B1
# Assay: self-cleavage, relative activity (ratio to wild type); higher = more cleavage; in vitro, sequencing
# Summary of the method: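 Relative activity compares each variant's cleaved/total read fraction with that of the unmutated ribozyme. To get these fractions, barcoded CPEB3 ribozyme libraries from rounds of error-prone PCR were transcribed with T7 RNA polymerase for 5 hours at 37°C and then given 15 min of DNase I treatment before EDTA was added. The RNAs were reverse transcribed with template switching and sequenced on Illumina, and DNA sequencing linked barcodes to variants. A minimum of 5 reads applied, and three batches were averaged.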
row,Variant,self-cleavage
1,UAACAGGGGGCCACAGCAGUAGCGUUCACGUCGUAGCCCCUGUCAGAUUCUGGUGAAUCUGCGAAUUCUGCUGUAUAUCUC,0.34
2,UAACAGGGGGCCACAGCAGUAGCGUUCAUGUCGCAGCCCCUGUCAGAUUCUGGUGAAUCUGCGAAUUCUGCUGUAUAUCUC,0.15
3,UAACAGGGGGCCACAGCAGUAGCGUUCACGUCGCAGCCCCUGUCAGGUUCUGGUGAAUCUGCGAAUUCUGCUGUAUAUCUC,0.33
4,UAACAGGGGGCCACAGCAGUAGAGUUCACGUCGCAGCCCCUGUCAGAUUCUGGUGAAUCUGCGAAUUCUGCUGUAUAUCUC,0.22
5,UAACAGGGGGCCACAGCAGUAGUGUUCACGUCGCAGCCCCUGUCAGAUUCUGGUGAAUCUGCGAAUUCUGCUGUAUAUCUC,0.4
6,UAACAGGGGGCCACAGCAGUAGGGUUCACGUCGCAGCCCCUGUCAGAUUCUGGUGAAUCUGCGAAUUCUGCUGUAUAUCUC,0.3
7,UAACAGGGGGCCACAGCAGUAGCGUUCACGUCGCAGCCACUGUCAGAUUCUGGUGAAUCUGCGAAUUCUGCUGUAUAUCUC,0.21
8,UAACAGGGGGCCACAGCAGUAGCGUUCACGUCGCAGCCGCUGUCAGAUUCUGGUGAAUCUGCGAAUUCUGCUGUAUAUCUC,0.27
9,UAACAGGGGGCCACAGCAGUAGCGUUCACGUCGCAGUCCCUGUCAGAUUCUGGUGAAUCUGCGAAUUCUGCUGUAUAUCUC,0.21
10,UAACAGGGGGCCACAGCAGUAGCGUUCACGUCGCUGCCCCUGUCAGAUUCUGGUGAAUCUGCGAAUUCUGCUGUAUAUCUC,0.22
11,UAACAGGGGGCCACAGCAGUAGCGUUCACGUCGCGGCCCCUGUCAGAUUCUGGUGAAUCUGCGAAUUCUGCUGUAUAUCUC,0.87
12,UAACAGGGGGCCACAGCAGUAGCGUUCACGUCGCAGCCCUUGUCAGAUUCUGGUGAAUCUGCGAAUUCUGCUGUAUAUCUC,0.34
13,UAACAGGGGGCCACAGCAGUAGCGUUCACGUCGCAGCCCAUGUCAGAUUCUGGUGAAUCUGCGAAUUCUGCUGUAUAUCUC,0.23
14,UAACAGGGGGCCACAGCAGUAGCGUUCACGUCGCAGCCCGUGUCAGAUUCUGGUGAAUCUGCGAAUUCUGCUGUAUAUCUC,0.27
15,UAACAGGGGGCCACAGCAGUAGCGUUCACGUCGCAGCCCCUGUCAGAUUCUGGUGAAUCUGCGAAUUCUGCUGUGUAUCUC,0.2
16,UAACAGGGGGCCACAGCAGUAGCGUUCACGUCGCAGCCCCUGUCAGAUUCUGGUGAAUCUGCGAAUUCUGCUGUUUAUCUC,0.28
17,UAACAGGGGGCCACAGCAGUAGCGUUCACGUCGCAGCCCCUGUCAGAUUCUGGUGAAUGUGCGAAUUCUGCUGUAUAUCUC,0.24
18,UAACAGGGGGCCACAGCAGUAGCGUUCACGUCGCAGCCCCUGUCAGAUUCUGGUGAAUCUGCGACUUCUGCUGUAUAUCUC,0.1
19,UAACAGGGGGCCACAGCAGUAGCGUUCACGUCGCAGCCCCUGUCAGAUUCUGGUGAAUCUGCGAGUUCUGCUGUAUAUCUC,0.2
20,UAACAGGGGGCCACAGCAGUAACGUUCACGUCGCAGCCCCUGUCAGAUUCUGGUGAAUCUGCGAAUUCUGCUGUAUAUCUC,0.2
21,UAACAGGGGGCCACAGCAGUAUCGUUCACGUCGCAGCCCCUGUCAGAUUCUGGUGAAUCUGCGAAUUCUGCUGUAUAUCUC,0.1
22,UAACAGGGGGCCACAGCAGUGGCGUUCACGUCGCAGCCCCUGUCAGAUUCUGGUGAAUCUGCGAAUUCUGCUGUAUAUCUC,0.23
23,UAACAGGGGGCCACAGCAGUUGCGUUCACGUCGCAGCCCCUGUCAGAUUCUGGUGAAUCUGCGAAUUCUGCUGUAUAUCUC,0.29

row,Variant,self-cleavage
1,UAACAGGGGGCCACAGCAGGAGCGUUCACGUCGCAGCCCCUGUCAGAUUCUGGUGAAUCUGCGAAUUCUGCUGUAUAUCCC,1.03
2,UAACAGGGGGCCACAGCAGGAGCGUUCACGUCGCAGCCCCUGUCAGAUUCUGGUGAAUCUGCGAAUUCUGCUGUAUAUCAC,1.03
3,UAACAGGGGGCCACAGCAGGAGCGUUCACGUCGCAGCCCCUGUCAGAUUCUGGUGAAUCUGCGAAUUCUGCUGUAUAUCGC,1.14
4,UAACAGGGGGCCACAGCAGGAGCGUUCACGUCGCAGCCCCUGUCAGAUUCUGGUGAAUCUGCGAAUUCUGCUGUACAUCUC,0.92
5,UAACAGGGGGCCACAGCAGGAGCGUUCACGUCGCAGCCCCUGUCAGAUUCUGGUGAAUCUGCGAAUUCUGCUGUAGAUCUC,0.99
6,UAACAGGGGGCCACAGCAGGAGCGUUCACGUCGCAGCCCCUGUCAGAUUCUGGUGAAUCUGCGAAUUCUGCUGUAAAUCUC,1.03
7,UAACAGGGGGCCACAGCAGUAGCGUUCACGUCGCAGCACCUGUCAGAUUCUGGUGAAUCUGCGAAUUCUGCUGUAUAUCUC,0.1
8,UAACAGGGGGCCACAGCAGUAGCGUUCACGUCGCAGCUCCUGUCAGAUUCUGGUGAAUCUGCGAAUUCUGCUGUAUAUCUC,0.42
9,UAACAGGGGGCCACAGCAGUAGCGUUCACGUCGCAGCCCCUGUCAGAUUCUGGUGAAUCUGCGAAUUCUGAUGUAUAUCUC,0.17
10,UAACAGGGGGCCACAGCAGUAGCGUUCACGUCGCAGCCCCUGUCAGAUUCUGGUGAAUCUGCGAAUUUUGCUGUAUAUCUC,0.28
11,UAACAGGGGGCCACAGCAGUAGCGUUCACGUCGCAGCCCCUGUCAGAUUCUGGUGAAUCUGCGAAUUCUGCUGUAUAUGUC,0.37
12,UAACAGGGGGCCACAGCAGUAGCGUUCACGUCGCAGCCCCUGUAAGAUUCUGGUGAAUCUGCGAAUUCUGCUGUAUAUCUC,0.27
13,UAACAGGGGGCCACAGCAGUAGCGUUCACGUCGCAGCCCCUGUCAGAUUAUGGUGAAUCUGCGAAUUCUGCUGUAUAUCUC,0.21
14,UAACAGGGGGCCACAGCAGUAGCGUUCACGUCGCAGCCCCUGUCAGAUUCUGGUGAAUCUGCGAAUUCUGCUGUAUAUCUU,0.32
15,UAACAGGGGGCCACAGCAGUAGCGUUCACGUCGCAGCCCCUGUCGGAUUCUGGUGAAUCUGCGAAUUCUGCUGUAUAUCUC,0.28
16,UAACAGGGGGCCACAGCAGUAGCGUUCACGUCGCAGCCCCUGUCUGAUUCUGGUGAAUCUGCGAAUUCUGCUGUAUAUCUC,0.14
17,UAACAGGGGGCCACAGCAGUAGCGUUCACGUCGCAGCCCCUGUCCGAUUCUGGUGAAUCUGCGAAUUCUGCUGUAUAUCUC,0.12
18,UAACAGGGGGCCACAGCAGUAGCGUUCUCGUCGCAGCCCCUGUCAGAUUCUGGUGAAUCUGCGAAUUCUGCUGUAUAUCUC,0.19
19,UAACAGGGGGCCACAGCAGUAGCGUUCCCGUCGCAGCCCCUGUCAGAUUCUGGUGAAUCUGCGAAUUCUGCUGUAUAUCUC,0.18
20,UAACAGGGGGCCACAGCAGUAGCGUUCGCGUCGCAGCCCCUGUCAGAUUCUGGUGAAUCUGCGAAUUCUGCUGUAUAUCUC,0.22
21,UAACAGGGGGCCACAGCAGUAGCGUUCACGUCGCAGCCCCUGUCAGAUUCUGGUGAAUCUGCGAAUUCUGCUGUAUAUCUC,0.33
22,UAACAGGGGGCCACAGCAGUAGCGUUCACGUCGCAGCCCCUGUCAGAUUCUGGUGAAUCUGCGGAUUCUGCUGUAUAUCUC,0.35
23,UAACAGGGGGCCACAGCAGUAGCGUUCACGUCGCAGCCCCUGUCAGAUUCUGGUGAAUCUGCGUAUUCUGCUGUAUAUCUC,0.26

row,Variant,self-cleavage
1,UAACAGGGGGCCACAGCAGGAGCGUUCACGUCGCAGCCCCUGUCAGAUUCUGGUGAAUCUGCGAAUUCUGCAGUAUAUCUC,0.46
2,UAACAGGGGGCCACAGCAGGAGCGUUCACGUCGCAGCCCCUGUCAGAUUCUGGUGAAUCUGCGAAUUCUGCGGUAUAUCUC,0.63
3,UAACAGGGGGCCACAGCAGGAGCGUUCACGUCGCAGCCCCUGUCAGAUUCUGGUGAAUCUGCGAAUUCUGCCGUAUAUCUC,0.84
4,UAACAGGGGGCCACAGCAGUAGCGUUCACGUAGCAGCCCCUGUCAGAUUCUGGUGAAUCUGCGAAUUCUGCUGUAUAUCUC,0.18
5,UAACAGGGGGCCACAGCAGUAGCGUUCACGUUGCAGCCCCUGUCAGAUUCUGGUGAAUCUGCGAAUUCUGCUGUAUAUCUC,0.3
6,UAACAGGGGGCCACAGCAGUAGCGUUCACGUCGCAGCCCCUGUCAGAUUCUGGUGAAUCUGCGAAUUCUGCUGUAUGUCUC,0.39
7,UAACAGGGGGCCACAGCAGUAGCGUUCACGUCGCAGCCCCUGUCAGAUUCUGGUGAAUCUGCGAAUUCUGCUGUAUUUCUC,0.28
8,UAACAGGGGGCCACAGCAGUAGCGUUCACGUCGCAGCCCCUGUCAGAUUCUGGUGAAUCUGCGAAUUCUGCUGUAUCUCUC,0.25
9,UAACAGGGGGCCACAGCAGUAGCGUUCACGUCGCAGCCCCUGUCAGAUUCUGGUGAGUCUGCGAAUUCUGCUGUAUAUCUC,0.23
10,UAACAGGGGGCCACAGCAGUAGCGUUCACGUCGCAGCCCCUGUCAGAUUCUGGUGAUUCUGCGAAUUCUGCUGUAUAUCUC,0.58
11,UAACAGGGGGCCACAGCAGGAGCGUUCACGUCGCAGCCCCUGUCAGAUUCUGGUGAAUCUGCGAAUUCUGCUGAAUAUCUC,1.19
12,UAACAGGGGGCCACAGCAGGAGCGUUCACGUCGCAGCCCCUGUCAGAUUCUGGUGAAUCUGCGAAUUCUGCUGCAUAUCUC,1.17
13,UAACAGGGGGCCACAGCAGGAGCGUUCACGUCGCAGCCCCUGUCAGAUUCUGGUGAAUCUGCGAAUUCUGCUGGAUAUCUC,1.17
14,UAACAGGGGGCCACAGCAGUAGCGUUCACGUCGCAGCCCCUGUCAGAUUCUGGUGUAUCUGCGAAUUCUGCUGUAUAUCUC,0.25
15,UAACAGGGGGCCACAGCAGUAGCGUUCACGUCGCAGCCCCUGUCAGAUUCUGGUGGAUCUGCGAAUUCUGCUGUAUAUCUC,0.25
16,UAACAGGGGGCCACAGCAGUAGCGUUCACGUCGCAGCCCCUGUCAGAUUCUGGUGCAUCUGCGAAUUCUGCUGUAUAUCUC,0.54
17,UAACAGGGGGCCACAGCAGGAGCGUUCACGUCGCAGCCCCUGUCAGAUUCUGGUGAAUCUGCGAAUUCUGCUGUAUAACUC,0.79
18,UAACAGGGGGCCACAGCAGGAGCGUUCACGUCGCAGCCCCUGUCAGAUUCUGGUGAAUCUGCGAAUUCUGCUGUAUACCUC,0.85
19,UAACAGGGGGCCACAGCAGUAGCGUUGACGUCGCAGCCCCUGUCAGAUUCUGGUGAAUCUGCGAAUUCUGCUGUAUAUCUC,0.19
20,UAACAGGGGGCCACAGCAGUAGCGUUUACGUCGCAGCCCCUGUCAGAUUCUGGUGAAUCUGCGAAUUCUGCUGUAUAUCUC,0.18
21,UAACAGGGGGCCACAGCAGUAGCGUUAACGUCGCAGCCCCUGUCAGAUUCUGGUGAAUCUGCGAAUUCUGCUGUAUAUCUC,0.27
22,UAACAGGGGGCCACAGCAGUAGCGUUCACGUCGCAGCCCCUGUCAGAUUCUGGUGAAUCUGUGAAUUCUGCUGUAUAUCUC,0.15
